Measured values published in the NTF2 design screens of Basanta et al. (2020).

Test: protease stability score; higher = more stable; yeast display proteolysis, trypsin and chymotrypsin;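 note: relative to predicted unfolded state with 0 unfolded-like and 1 meaning tenfold more protease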
Sequence “DEDEEAAEKMTELFRKSIKTGDEDLLTRLIDPHVRVDVNGRDIHGRESYFHELRNLGITNVEMQLKSRDVIGDKVHIDGTNRFNGRNHKVIIIVLKFNGRWVIEEIRIH” has a protease stability score of -0.045. Sequence “DEHRRELKEAIEMMLTALYTGDEKILLELIDPNTRLDVNGRELHGRDDWVEETRRIKNLKFHVHHIDVQGEKIHVDGLVIFNGRERRVHYNAEKYDGRWILTHINVR” has a protease stability score of 1.22. “SHVKEIIRHFFDELVRRRETGDEEVLKELADPHTRLRVGEKEIHGWDEILTRFITWLEIHGAEYTDHRIHDIRVVGEKVHVESEIDIDYNGKHVEHHFEIVVEKINGRWRMKSIFVS” showed a protease stability score of 1.27. For “SEDEELAKRIAKLWIELHLTGNEDTIKQLMDPRVLVRIHINGVDIHLHGREHVIRHHRETMKHLGWSKVHLELKDSKFIGEYLHMDVRMNVNGQEHHVELEIIVINGRMKEIRINIE”, the protease stability score was 2.02. With “DEENEHSEKISEEVLHALHTGDWNRLAHLADPHTLLIIEYGDKEIVNHGWEVFVKWILDVFRKVKNIKVHIRDSKVIGDKIHLDVEIHFNGRTTTVHIDITIIDGRLHSIHINHK” the protease stability score was 1.8. For “DEVEELAKRLLEELIHALETGDFDHNRHLLDPNVRIVIGEKDHVGWREVTKALRHMGIDHIHVRIHRIEVQGDKVHTESSVEMDINGKKLEFDTWLILRKVNGRWLFHSIEIR”, the protease stability score was 1.44. Work on “DEHHEFSRTATEMWIHFMETGDEHDLRNLIDPNVKTKVGDKHHHGREFLVKWLLTFMERADHVEIRLNDIKLQGDKIHIEGRLIIIVGDKEIHIHVERDIIKVNGRWVVHSVIFR” yielded a protease stability score of 1.21. “SELEEQERTHIHKLMNAIETGDEDLFRRLFDPNVRVDVDGVEFIGREHLLILLRHMRMHARHFKEEDFSVQGDKVHLYGHLDEEIEINGKVTRRHIHVTWVLVKVNGKWVIHSQYVL” showed a protease stability score of 1.41. “DEETEEERKITELSLKAYKTGDEDTLSSLIDPHARFIYNGRHHHGRETASHILRRETERLGVKHIHLKDTEIDDVNGVVDMRIHMMVHYGNKTTELIIILRITKFNGRWIIETIEVRVR” gave a protease stability score of 0.691. For “SEEQEHTREAMEVYLHLMHTGDWDRFRELVDPNVRMNINGVDLHGWEELTRFMEIFWRDLGFDHFKIHEMRIYGEKSHIRGESIIGDKSREVHIHVVIVNGRIKSEKFVET”, the protease stability score was 0.83. “SEEERYHDKALKILKESVDTGDPHLLSRYMDPNDRLDINGREIHGMEILLKELLHIMERADHIRIELNDIKMQGDFLELDGILIIHQGEYTLQLRVKLVSLKVDGRWLHHSIEVK” gave a protease stability score of 0.171. Work on “DEEEHWAKEFLKIESEAMMTGDEESLIELIDPDARIQIGDKKYHGMEFVKYLFEQERKKLGIERVHVEFELKEIHYQGNYMIVDGIIRRSYGDKTETRRVIIYLIKFDGQWVIESIQFL” yielded a protease stability score of 0.863. Sequence “SEHQEVFEEFVRRWIEDMETGNEEQLRHLADPDARIVINGREHHGREWVSTFLMKRIRHLGVKHVEIDDKKQIGEKIHVRVTIHFDGVTVDTELIALKINGRWFMHEVIFR” has a protease stability score of 1.5. For “DEDEERMEHMIHLLDHALETGDWRTISKLIDPHVRLEVNGVNFVGREEIITFLLEIRMSSRIHIKDFRVVGDKLEMEIDSHIDLHYNGKTYQTRVESRLIIKKVNGRWILQESSER”, the protease stability score was 1.15. Work on “REEEKDEERMVHELMEWHRTGDEKTLNELLDPNARFIINGKHIHGREVFNEEVKRLGFRIEEYHLRRVRIYDGRIEFETEIDGEVNGRRLHIETRFHAIKINGQWRLKHIEFH” yielded a protease stability score of 2.5. In the case of “DDEERHASTIFELLMEVILTGDEDTFEELADPNTRFDINGREFHGREYMSHLKTQYDHWYLKHMHITSSEVQGNFAILNSETDYELEYGDKRVSFYERWHLFVLKVDGRWIIHSFRIN”, the protease stability score is reported as 0.985. For “DEETNLSKLVMEISLELLETGDEEHIHRFVDPHARTILFIDGREEQVHGREQASKWIMWTVKFLGVDHIEVEDTKIVNGVAHLNIRMEVGDKRLTSHFTSEKVNGKWLIKDIRIRID”, the protease stability score was 1.94. “SEDTEMVRIVLEHIEHVWRTGDEHTLRELMDPHVRMDINGREHHGREHVSEIFEQEMRELGADHFRIDHKHVRIINGRIILYLRVKTHIGEKRLDIEIIIILSKVDGRWFIKEISIRHI” showed a protease stability score of 1.11. Sequence “TEYEEHMKKMNEEILHSWITGDEDTLQHLADPNVRVEINGQETHGREQLYNTFHKAGFKHWEFDSIRFQGDKSDIRGQFEVDGQLREMEVEMRIVNGRLKIVRLDIR” has a protease stability score of 0.977. For “DEEKRHHDEWRQFFLDSIKTGNWFELLKMIDPNTKILINGKEFHGRDAMHHFLTELRRRVDHLERFDIHHIDIQGNKAFDDTRLEGRINGVETHIDLLLISTKVNGVWYLKSVELR”, the protease stability score was 2.13. Sequence “SETEENAEHVVREWFEMITTGDEDEVLRLMDPHVRVRIGDKIIHGREIFLAHMRHWRIKNKHFEIEHMHFYGDKAVLDGRLVGEETVDGKHRTYDRRVDFNLVKIDGKWHIREFHVD” has a protease stability score of 1.52. “SEEEEYALKVLEDILKAFLTGDWKITEHLLDPDARLEINGRNFVGRELIRKYLEEYLRRIDVVRIKIRHVEVQGDKNHLEGELIEIQGDKHKSMDMKIHLVIINGRVRREHVRVE” showed a protease stability score of 2.15. Sequence “DEQEEDDREAVKHALEVWETGDERVLWELFDPHVRIIVGDKHVHGREHFLRLTHELKRKVKGIRFDIRHVNLYDGRIEMDTDLEVDGRKHKTTIIAKKVNGRWILESIEIR” has a protease stability score of 1.45. With “SEERAKKVAKKLMEAFVKGNKDDAKDALQEDVQLHIAGTTYHGPKAVEKLIEFWQRVGVEVKVQEVRVKGNHVEIQTQVHLGDNTTTVRYKIQVEGDKVKKLQLNFSEEVFKQAKDG” the protease stability score was 2. Work on “RHEERHLEEKLQRLLHAWLTGDEDELTELADPDVRLKINGQHYIGWEQFFKALTDLRREMRIHDLKIKRKEIDGDKLVLDGETDGEINGVKRLHKTEIIIIMIDGRLRRVEFRQH” yielded a protease stability score of 0.618. With “DEDEKMLREYQRLFEEASKTGDWEHMVKLLDPDVRIRIGDKDIVGREHVLEQKKRHEDHLGIDRVNIKLVIRDERHQGEKIFLDGEFIMHFNGRTYRQHVTIILTKINGRWWIESIEIR” the protease stability score was 1.19. For “TEEEHFIKHATELWLRLLRTGDEHELSKMIDPHARVLIGDKNIHGRELASKFLSEFAHQIDHVEIRIKEVRTVDGKVDSDTRLDMHVDGQDIHHETRIISLKVDGKWLLQSFHFD”, the protease stability score was 0.456. In the case of “TEDEELIERYVRFFLKIMETGDEKLTERMMDPDARFEIGDKEEHGREAIYEWLSKIKNIRIKIHHIKIQGDKLHLDVRFHINGKEIEVEIVSKKIDGKWMVHSVIVK”, the protease stability score is reported as 1.5. Work on “DEDKERADEMLEYILHYILTGDEDSLRELFDPHARLHVDGRDIIGWDKFNRKLIEIRQRTRIQSEHIHIQGDKLHVDGTLRINIHYNGQHLHIDLRSIHITVKINGRWVFKFMEIR” yielded a protease stability score of 0.829. In the case of “KEEEELVKKMLDLLVEAWETGDWKLLDHLLDPNVKLEVDGVLHIGREEAVRVMLEFHKRVDHVEVRDRDFRIQGEKVRHEVELRLHQGEFHVITRIEIEVTKVNGRWQMKHIRIE”, the protease stability score is reported as 2.56. With “SEEEESAKWFNHVRHEAERTGDEETLLRLLDPSVKSTYGDKTSHGRHEMEEIMKRLGVSRVHLDIRHVEVQGDKVNVDGLVEFDGQEMRVILIVLKIDGRWIAEHVIVH” the protease stability score was -0.118. With “TEEEELSELILELTERMIKTGDEKTLHRLMDPNARTVIGDKQDHGMRTIFNIMEELSERIKNARFSLKHIDVDGDKVKIWSTLNYDGRRWEVEIVARKIDGQWRLEEFRIR” the protease stability score was 0.626. “NKMMEEIHHWLRLLIENEITGDEEKSLHLADPEARIDFDGVEIHGWERFLKFVEEKLKLLGARVEDIKIHDYRIIDGRLHIDSRVHIEINGVRQTREREIVSRKVNGRWLVNSLHFR” showed a protease stability score of 0.607. In the case of “DEERRRAKKFLEQFVRNVETGDEELHYHLADPHMKVKIGDKEFHGMEHWIEWFHRFGFDHMEIELKDIRVQGDKAHIDGRLHVDYNGREHSTNVELVVRKVNGRWRLHELRVE”, the protease stability score is reported as 1.28. “DEERKRSEELMKLEIHVFETGDWEWYREMADPNTRMHIDGKDFHGREEIYKFLHEHHLRFKNIKIHFEHIELQGEYVHNDVIIHVNGVDLIAHIIIVVVNGRVTHSEFQLE” gave a protease stability score of 1.17. For “DEDLQFLKNFKEEWIKNLRTGDEDAVQKLADPNVRIDIDGKELHGREVMLEMLHQETNELRLKDVKDKHMTVQGDKIHWDGILIITINGKEIRRRVHIFVQKVDGRWVIESEIHR”, the protease stability score was 0.942.
